In patent publication EP1828247B1 (Crucell Holland B.V., dated 2011):

T1: recombinantly expressed purified soluble WNV E protein (strain 382-99), truncated form with Myc and His tags (West Nile virus strain 382-99, UniProt Q9Q6P4 291-696)
T1 construct: also called recombinant WNV-E protein; truncated E protein; not shown: Myc tag and His tag from pAdapt.myc.his
T1 sequence: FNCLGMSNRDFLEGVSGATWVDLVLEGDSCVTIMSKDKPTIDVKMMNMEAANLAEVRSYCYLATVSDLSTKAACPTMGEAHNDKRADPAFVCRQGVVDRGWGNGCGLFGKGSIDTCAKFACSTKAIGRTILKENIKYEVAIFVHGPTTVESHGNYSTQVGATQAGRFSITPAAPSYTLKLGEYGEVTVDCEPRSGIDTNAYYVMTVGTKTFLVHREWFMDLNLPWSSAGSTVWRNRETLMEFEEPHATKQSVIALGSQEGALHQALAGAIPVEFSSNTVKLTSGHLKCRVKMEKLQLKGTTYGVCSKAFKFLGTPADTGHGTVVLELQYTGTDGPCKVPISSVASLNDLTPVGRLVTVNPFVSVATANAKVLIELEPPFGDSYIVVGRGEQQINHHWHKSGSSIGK

B1: SC04-271 (scFv)
scFv: EVQLVETGAEVKKPGESLRISCKGSGYTFNNYWIGWVRQMPGKGLEWMGIIYPGDSDTRYSPSVQGHVTISADKSINTAYLQWSSLKASDTAVYYCARRPGYDYGFYYFDYWGQGTLVTVSSGTGGSGGTGSGTGGSTQSALTQPRSVSGSPGQSVTISCTGTSSDVGGYNYVSWYQHHPGKAPKLMIYDVSNRPLGVSNRFSGSKSGNTASLTISGLQAEDEADYYCSSYTSSSTYVFGTGTHLTVLS
B2: SC04-361 (scFv)
scFv: EVQLVQSGAEVKKPGESLKISCKASGFSFSTYWIGWVRQMPGKGLEWMGIIYPADSDTRYSPSFQGQVTISADKSISTAYLQWSSLKASDTAMYYCARLRGPYYDFWNGYRETHDAFNVWGQGTMVTVSSGTGGSGGTGSGTGGSTDVVMTQSPDSLAVSLGERATINCKSSQNILDNSDNKNFLAWYQQKPGQPPKLLIYWASARESGVPDRFSGSGSGTDFTLTISSLQAEDVALYYCQQYYNTPITFGQGTRLEIKR
B3: SC04-299 (scFv)
scFv: EVQLVETGGGVVQPGRSLRLSCAASGFTFSGYAMHWVRQAPGKGLDWVAVISYDGSEKYSADSVKGRFTISRDNSKNTLYLQMNSLRAEDTAVYYCAKESGGPIWYKYYGVDVWGQGTTVTVSSGTGGSGGTGSGTGGSTSYVLTQPPSLSAAPRQRVTISCSGSSSNIGNYGVNWYQQLPGKAPKLLIYYDDLLPSGVSDRFSGSKSGTSASLAISGLQSEDEGDYYCAAWDDTLSAWVFGGGTKLTVLG
B4: SC04-283 (scFv)
scFv: EVQLVQSGAEVKKSGESLKISCKGSGYTFNTYWIGWVRQMPGKGLEWMGIIYPGDSDTIYSPSFQGQVTISADKSISTAYLQWSSLKASDSAMYYCARLTFRRGYSGSDSFLPPGDFDYWGQGTLVTVSSGTGGSGGTGSGTGGSTDIQMTQSPSTLSASVGDRVTITCRASQSISSWLAWYQQKPGKAPNLLIYAASSLQSGVPSRFSGSGSGTDFTLTISSLQPDDSATYYCQQYNTYPLTFGGGTKVEIKR
B5: SC04-353 (scFv)
scFv: EVQLVQSGGGVVQPGRSLRLSCAASGFTFSNYAMHWVRQAPGKGLEWVAVISYDGGNKYYADSVKGRFTMSRDNSKNTLYLQMNSLRAEDTAVYYCARDFWSGYSMVDSYYYYMDVWGKGTTVTVSSGTGGSGGTGSGTGGSTETTLTQSPGTLSLSPGERATLSCRASQSVSNTFLAWYQQKPGQAPRLLIYGASSRATGIPDRFSGSGSGTDFTLTISRLEPEDFAAYYCQQYGSSLTFGPGTKVDIKR
B6: SC04-311 (scFv)
scFv: EVQLVQSGGGVVQPGRSLRLSCVASGFTFSKDAMHWVRQAPGKGLEWVAVISYDGSDKHYADSVKGRVTISRDNSRKTLYLRMDSLRAEDTALYYCARGYNSGHYFDYWGQGTLITVSSGTGGSGGTGSGTGGSTQSVLTQPPSVSAAPGQKVTISCSGTSSNIGDNYVSWYQHLPGTAPKLLIYDNNKRPSGIPDRFSGSKSGTSATLGVTGLQTGDEADYYCGTWDSSLTAVVFGGGTKLTVLG
B7: SC04-289 (scFv)
scFv: QMQLVQSGAEVKKPGESLRISCKGSGYSFTSNWITWVRQMPGKGLEWMGRIDPSDSYTNYSPSFQGHVTISADKSISTAYLQWSSLKASDTAMYYCARDVVGVGASDYYYYMDVWGKGTTVTVSSGTGGSGGTGSGTGGSTEIVLTQSPGTLSLSPGETATLSCRTSQSVSSSYLGWYQQKPGQAPRLLIYGASIRATGIPARFSGSGSGTEFTLTIDSLQSEDFAVYYCQQYNNWPPITFGQGTRLEIKR

target: T1, recombinantly expressed purified …; assay: phage antibody ELISA on coated recombinant soluble WNV E protein

Binder | OD 492nm [OD 492nm]
B1 | 0.608
B2 | 0.076
B3 | 0.072
B4 | 0.074
B5 | 0.099

target: T2, West Nile virus strain USA99b (strain 385-99), whole virus (West Nile virus strain 385-99 (USA99b)); assay: phage antibody ELISA on coated whole inactivated WNV
T2 construct: also called WN virus; WNV

Binder | OD 492nm [OD 492nm]
B1 | 0.984
B6 | 1.04
B7 | 0.759
B3 | 1.07
B4 | 1.21

target: T1, recombinantly expressed purified …; assay: phage antibody ELISA on coated recombinant soluble WNV E protein; remark: another data set of the same source

Binder | binding result
B2 | no binding
B5 | no binding
